According to the Human Domainome abundance scans (Beltran et al. 2025):
± gives the uncertainty stated by the source.

B1: POU domain, class 5, transcription factor 1, residues 134 to 212; numbered along this chain, Q01860 (parent)
chain: EESQDIKALQKELEQFAKLLKQKRITLGYTQADVGLTLGVLFGKVFSQTTICRFEALQLSFKNMCKLRPLLQKWVEEAD

Variants of: B1
Assay: abundance fitness (aPCA) (normalised: wild type 0, dead -1); higher = more abundant; growth selection in yeast, the domain comes from the species named
Conditions: Homo sapiens

Abundance fitness, by site and new letter:
E14: K 0.267 ± 0.14; S -0.358 ± 0.13; P -0.613 ± 0.29; G -0.033 ± 0.13; F -0.056 ± 0.14; D -0.533 ± 0.39; I 0.14 ± 0.15; C -0.476 ± 0.24; Q -0.05 ± 0.14; M -0.307 ± 0.22; A 0.143 ± 0.085; H -0.037 ± 0.16
K7: P -0.124 ± 0.099; M -0.319 ± 0.12; C -0.132 ± 0.086; N -0.022 ± 0.14; F -0.257 ± 0.13; D 0.061 ± 0.098; L -0.073 ± 0.061; W -0.173 ± 0.074; G -0.193 ± 0.055; S -0.05 ± 0.063; Q -0.142 ± 0.1; H -0.193 ± 0.15; Y -0.12 ± 0.14; I -0.391 ± 0.22; E -0.025 ± 0.075; T -0.162 ± 0.1; V -0.085 ± 0.065; A -0.007 ± 0.062
Q31: K -0.557 ± 0.34; R -0.469 ± 0.14; P 0.133 ± 0.14; Y 0.323 ± 0.27; A -0.103 ± 0.11; F -0.009 ± 0.29; W 0.078 ± 0.12; D -0.126 ± 0.33; V -0.679 ± 0.21; L -0.093 ± 0.2; H -0.108 ± 0.37; E 0.276 ± 0.1; G -0.402 ± 0.16; C 0.266 ± 0.18
A17: R -0.768 ± 0.32; V -0.145 ± 0.42; G 0.11 ± 0.13; P -0.357 ± 0.45; T 0.228 ± 0.38
D33: M -0.497 ± 0.34; P -0.227 ± 0.2; Q 0.236 ± 0.13; K 0.128 ± 0.2; G -0.283 ± 0.12; A -0.594 ± 0.19; E -0.081 ± 0.13; L -0.563 ± 0.23; F -0.407 ± 0.31; S -0.572 ± 0.19
Q15: G 0.008 ± 0.086; K -0.631 ± 0.43; R -0.181 ± 0.083; L -0.259 ± 0.1; W -0.442 ± 0.13; M -0.184 ± 0.17; A 0.127 ± 0.12; T -0.329 ± 0.23; E 0.07 ± 0.15; H -0.27 ± 0.3; C -0.218 ± 0.2; S -0.094 ± 0.12; D 0.089 ± 0.18
T26: N 0.268 ± 0.45; A 0.202 ± 0.15; E 0.04 ± 0.27; R 0.129 ± 0.14; L 0.004 ± 0.25; V -0.212 ± 0.19; G 0.071 ± 0.12; K -0.414 ± 0.36; Q -0.123 ± 0.39; C -0.059 ± 0.46; S 0.329 ± 0.18; M -0.256 ± 0.42; I -0.313 ± 0.48
A32: R 0.066 ± 0.1; E -0.024 ± 0.15; T -0.06 ± 0.21; H -0.487 ± 0.41; G -0.235 ± 0.1; V -0.785 ± 0.31; W -0.682 ± 0.29; C -0.229 ± 0.32; N -0.193 ± 0.33; K 0.232 ± 0.2; L -0.749 ± 0.27
D5: T -0.141 ± 0.4; V -0.018 ± 0.41; P 0.062 ± 0.42; S -0.191 ± 0.41; N 0.092 ± 0.41
L27: Y -0.358 ± 0.4; I -0.051 ± 0.49; N -0.429 ± 0.36; C 0.039 ± 0.19; P -0.274 ± 0.2; M -0.188 ± 0.19; V -0.588 ± 0.14; S -0.724 ± 0.25; K -0.31 ± 0.19; E -0.842 ± 0.28; D -0.185 ± 0.25; W -0.185 ± 0.11; G -0.387 ± 0.1; R -0.345 ± 0.1; H -0.387 ± 0.41; A -0.648 ± 0.21; Q -0.602 ± 0.24
K18: L -0.091 ± 0.11; T 0.074 ± 0.13; R -0.222 ± 0.099; H -0.523 ± 0.48; F -0.268 ± 0.44; V -0.466 ± 0.16; M 0.052 ± 0.15; S 0.192 ± 0.13; E -0.415 ± 0.2; G -0.147 ± 0.12; A 0.021 ± 0.11; Q 0.029 ± 0.19; W -0.19 ± 0.18
Q22: F 0.56 ± 0.4; M -0.189 ± 0.45; S 0.268 ± 0.14; H 0.027 ± 0.29; R -0.092 ± 0.2; A -0.151 ± 0.3
K23: A -0.608 ± 0.33; Q -0.256 ± 0.46; R 0.059 ± 0.12; L -0.608 ± 0.37; T -0.384 ± 0.27
L13: I 0.099 ± 0.27; P -0.306 ± 0.45; V -0.228 ± 0.14; S -0.743 ± 0.25; H -0.176 ± 0.19; R -1.06 ± 0.35; C -0.806 ± 0.31; A -0.526 ± 0.22; N -0.252 ± 0.19; Y -0.527 ± 0.24; M 0.021 ± 0.17; E -0.484 ± 0.39; Q -0.641 ± 0.34; F -0.149 ± 0.14; G -0.708 ± 0.23; W -0.58 ± 0.19
A8: E -0.08 ± 0.4; T 0.429 ± 0.3; P 0.697 ± 0.5; C 0.222 ± 0.21; S 0.171 ± 0.21; G -0.148 ± 0.14; L -0.318 ± 0.38; V 0.083 ± 0.25; Q 0.182 ± 0.3
